# Changes are numbered by the printed parent chain.
# T1: Human ANGPTL4(26-406)-FLAG-His6-Avi (human, UniProt Q9BY76 24-406, biotin on the C-terminal Avi tag in the biotinylated preparations (immobilised form in SET, ELISA and Octet))
# T1 construct: also called full-length human ANGPTL4; hANGPTL4
# T1 sequence: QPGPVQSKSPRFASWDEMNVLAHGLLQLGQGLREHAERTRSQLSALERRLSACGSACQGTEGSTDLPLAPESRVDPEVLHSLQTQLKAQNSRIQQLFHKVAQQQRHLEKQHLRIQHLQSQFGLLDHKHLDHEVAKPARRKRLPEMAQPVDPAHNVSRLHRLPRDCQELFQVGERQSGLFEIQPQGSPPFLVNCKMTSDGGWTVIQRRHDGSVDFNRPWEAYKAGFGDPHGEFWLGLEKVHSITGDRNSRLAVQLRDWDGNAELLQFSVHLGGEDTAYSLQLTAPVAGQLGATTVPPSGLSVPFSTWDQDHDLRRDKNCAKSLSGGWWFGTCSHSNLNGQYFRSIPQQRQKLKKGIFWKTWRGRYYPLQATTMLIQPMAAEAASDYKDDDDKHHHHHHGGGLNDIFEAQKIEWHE
# B1: MOR023403 (antibody, human IgG1, kappa, V domains shown)
# VH: EVQLLESGGGLVQPGGSLRLSCAASGFTFSSYWMHWVRQAPGKGLEWVSVINLGSQAKYAGSVKGRFTISRDNSKNTLYLQMNSLRAEDTAVYYCARDSYIYDLHWGFDNWGQGTLVTVSS
# VL: DIQMTQSPSSLSASVGDRVTITCRASQDISSYLNWYQQKPGKAPKLLIYAASRLQSGVPSRFSGSGSGTDFTLTISSLQPEDFATYYCQQSYTHPYTFGQGTKVEIKR
# notes: as MOR023400: built on MOR022771, limits derived; the printed CDR is one residue shorter than the parent stretch
# B2: MOR023406 (antibody, human IgG1, kappa, V domains shown)
# VH: EVQLLESGGGLVQPGGSLRLSCAASGFTFSSYWMHWVRQAPGKGLEWVSYIPYMGPGKFYADSVKGRFTISRDNSKNTLYLQMNSLRAEDTAVYYCARDSYIYDLHWGFDNWGQGTLVTVSS
# VL: B1 VL
# notes: as MOR023400: built on MOR022771, limits derived
# B3: MOR023402 (antibody, human IgG1, kappa, V domains shown)
# VH: B2 VH with Y50V, P52G, M54S, P56T, G57H, K58T, F59N
# VL: B1 VL
# notes: as for B2
# B4: MOR023446 (antibody, human IgG1, kappa, V domains shown)
# VH: EVQLLESGGGLVQPGGSLRLSCAASGFTFSSYYLHWVRQAPGKGLEWVSSISSAGHYIDYADSVKGRFTISRDNSKNTLYLQMNSLRAEDTAVYYCARERSYAHDHWGQGTLVTVSS
# VL: B1 VL with S30Y, S31I, Y32D, R53K, S91G, T93F, H94L, Y96Q
# notes: as MOR023439: built on MOR022768, limits derived
# B5: MOR023412 (antibody, human IgG1, kappa, V domains shown)
# VH: B2 VH with Y50G, P52S, M54S, P56S, G57S, K58T, F59N
# VL: B1 VL with S91A, T93Y, H94P
# notes: as MOR023407: built on MOR022771, limits derived
# B6: MOR023413 (antibody, human IgG1, kappa, V domains shown)
# VH: B2 VH with Y50G, P52S, M54S, P56S, G57S, K58T, F59N
# VL: B1 VL with S91Y, T93Y, H94P
# notes: as for B5
# B7: MOR023447 (antibody, human IgG1, kappa, V domains shown)
# VH: B4 VH with H56V, I58K
# VL: B1 VL with S30Y, S31I, Y32D, R53K, S91G, T93F, H94L, Y96Q
# notes: as for B4
# B8: MOR023400 (antibody, human IgG1, kappa, V domains shown)
# VH: B2 VH with Y50G, M54Q, G57A, K58I, F59N
# VL: B1 VL
# notes: built on the parent antibody for IgG conversion MOR022771 with residues 48-66 of the heavy chain replaced; Parent Fab MOR021830
# B9: MOR023441 (antibody, human IgG1, kappa, V domains shown)
# VH: B4 VH with S52A, S53G, A54M, H56N
# VL: B1 VL with S30Y, S31I, Y32D, R53K, S91G, T93F, H94L, Y96Q
# notes: as for B4
# B10: MOR023443 (antibody, human IgG1, kappa, V domains shown)
# VH: B4 VH with S52A, A54S, G55S, H56P, Y57A, I58T, D59H
# VL: B1 VL with S30Y, S31I, Y32D, R53K, S91G, T93F, H94L, Y96Q
# notes: as for B4
# B11: MOR023407 (antibody, human IgG1, kappa, V domains shown)
# VH: B2 VH with Y50G, P52S, M54S, P56S, G57S, K58T, F59N
# VL: B1 VL with Q89F, S91M, T93Y
# notes: built on the parent antibody for IgG conversion MOR022771 with residues 89-96 of the light chain replaced; Parent Fab MOR021830 has another HCDR2 (D53) and Q1 in the VH
# B12: MOR023448 (antibody, human IgG1, kappa, V domains shown)
# VH: B4 VH with A54I, G55S, H56G, Y57F, I58T, D59E
# VL: B1 VL with S30Y, S31I, Y32D, R53K, S91G, T93F, H94L, Y96Q
# notes: as for B4
# B13: MOR023404 (antibody, human IgG1, kappa, V domains shown)
# VH: B1 VH with N52P, L53Y, G54M, S55G, Q56T, G61D
# VL: B1 VL
# notes: as for B1
# B14: MOR023410 (antibody, human IgG1, kappa, V domains shown)
# VH: B2 VH with Y50G, P52S, M54S, P56S, G57S, K58T, F59N
# VL: B1 VL with S91A, T93F, H94A
# notes: as for B5
# B15: MOR023411 (antibody, human IgG1, kappa, V domains shown)
# VH: B2 VH with Y50G, P52S, M54S, P56S, G57S, K58T, F59N
# VL: B1 VL with S91A, T93Y
# notes: as for B5
# B16: MOR023439 (antibody, human IgG1, kappa, V domains shown)
# VH: B4 VH with S50G, A54G, H56S, D59N
# VL: B1 VL with S30Y, S31I, Y32D, R53K, S91G, T93F, H94L, Y96Q
# notes: built on the parent antibody for IgG conversion MOR022768 with residues 48-66 of the heavy chain replaced; Parent Fab MOR021823
# B17: MOR023416 (antibody, V domains shown)
# VH: QVQLLESGGGLVQPGGSLRLSCAASGFTFSDYALHWVRQAPGKGLEWVSRITYTGLYTYYADSVKGRFTISRDNSKNTLYLQMNSLRAEDTAVYYCAREHYYSSPMGGVAVDNWGQGTLVTVSS
# VL: DIVLTQPPSVSGAPGQRVTISCSGSSSNIGYNTVSWYQQLPGTAPKLLIYSNNIRPSGVPDRFSGSKSGTSASLAITGLQAEDEADYYCSSWDFLIKSLVFGGGTKLTVL
# notes: as MOR023415: built on parent Fab MOR021798, limits derived
# B18: MOR023417 (antibody, V domains shown)
# VH: B17 VH with L56M, Y57W, Y59E
# VL: B17 VL
# notes: as for B17
# B19: MOR023418 (antibody, V domains shown)
# VH: B17 VH with L56Q, T58K
# VL: B17 VL
# notes: as for B17
# B20: MOR023419 (antibody, V domains shown)
# VH: B17 VH with L56V, Y59G
# VL: B17 VL
# notes: as for B17
# B21: MOR023415 (antibody, V domains shown)
# VH: B17 VH with L56F, Y59F
# VL: B17 VL
# notes: built on parent Fab MOR021798 with residues 48-66 of the VH replaced
# B22: MOR023420 (antibody, V domains shown)
# VH: B17 VH with T52S, T54M, L56S, Y57S
# VL: B17 VL with S90G, W92F, F94W, L95V, I96T, K97S, S98H, L99V
# notes: built on parent Fab MOR021798 with LCDR3 residues 90-99 of the VL replaced (last LCDR3 residue V kept)
# B23: MOR022764 (antibody, human IgG1, lambda, V domains shown)
# VH: EVQLVQSGAEVKKPGESLKISCKGSGYSFSTYWISWVRQMPGKGLEWMGIIDPSQSDTRYSPSFQGQVTISADKSISTAYLQWSSLKASDTAMYYCARVYGYVYMDVWGQGTLVTVSS
# VL: SYELTQPLSVSVALGQTARITCSGDNLGKKYAYWYQQKPGQAPVLVIYDKTKRPSGIPERFSGSNSGNTATLTISRAQAGDEADYYCASYDWYSSSYVFGGGTKLTVLG
# notes: human IgG1
# B24: MOR022766 (antibody, human IgG1, lambda, V domains shown)
# VH: B23 VH with Q55N, S56T
# VL: B23 VL
# notes: human IgG1
# B25: MOR022768 (antibody, human IgG1, kappa, V domains shown)
# VH: B4 VH with S50Y, S53G, A54S, H56S, Y57S, I58T, D59Y
# VL: B1 VL with S30Y, S31I, Y32D, R53K, S91G, T93F, H94L, Y96Q
# notes: human IgG1
# B26: MOR022771 (antibody, human IgG1, kappa, V domains shown)
# VH: B2 VH with Y50G, P52S, M54S, P56S, G57S, K58T, F59N
# VL: B1 VL
# notes: human IgG1
# B27: MOR022767 (antibody, human IgG1, kappa, V domains shown)
# VH: B4 VH with S50Y, S53G, A54E, H56S, Y57S, I58T, D59Y
# VL: B1 VL with S30Y, S31I, Y32D, R53K, S91G, T93F, H94L, Y96Q
# notes: human IgG1
# B28: MOR022769 (antibody, human IgG1, kappa, V domains shown)
# VH: B4 VH with S50Y, S53G, A54D, G55A, H56S, Y57S, I58T, D59Y
# VL: B1 VL with S30Y, S31I, Y32D, R53K, S91G, T93F, H94L, Y96Q
# notes: human IgG1
# B29: MOR022772 (antibody, human IgG1, kappa, V domains shown)
# VH: B2 VH with Y50G, P52S, M54D, G55A, P56S, G57S, K58T, F59N
# VL: B1 VL
# notes: human IgG1
# Target: T1, Human ANGPTL4(26-406)-FLAG-His6-Avi
# Assay: SET assay
# Description: (§1) SET assays were performed as follows. In a 96-well polypropylene plate, a constant concentration of ANGPTL4 antibody was mixed with different concentrations of non-biotinylated human, cyno, mouse, or rat full-length ANPGLT4 protein, or human ANGPTL4 N-terminal domain protein (5-fold serial dilution) and incubated at 22° C. for 14 hours with constant shaking (300 rpm). On a pre-blocked 384-well streptavidin-coated Meso Scale Discovery (MSD) plate biotinylated ANGPTL4 (full-length human, cyno, mouse, or rat ANGPTL4, or human ANGPTL4 N-terminal domain) protein (1 nM, 15 μL per well) was immobilized and washed thereafter.
# (§2) The equilibrium binding reactions (15 μL per well) were applied to the MSD plate with immobilized ANGPTL4 and incubated for 20 min at 22° C. The unbound material was removed by washing the plate 3 times with wash buffer, and the captured antibody was detected by adding Sulfo-tagged goat anti-human IgG (Meso Scale Discovery). After washing MSD read buffer T was added and the plate was developed using a Sector Imager 6000 (Meso Scale Discovery). The data were transferred to Microsoft Excel for analysis and plotted using GraphPad Prism v6. The KD values were determined by fitting the data to the following equation: […]
# (§3) where Bₘₐₓ is the signal when no ANGPTL4 protein is present in solution, CAb is the constant concentration of ANGPTL4 antibody in solution, CAg is the concentration of ANGPTL4 in solution, and KD is the equilibrium dissociation constant.
row,Kd,Binder
1,3 pM,B1
2,3 pM,B2
3,1 pM,B3
4,< 1 pM,B4
5,1 pM,B5
6,< 1 pM,B6
7,< 1 pM,B7
8,1 pM,B8
9,< 1 pM,B9
10,< 1 pM,B10
11,1 pM,B11
12,< 1 pM,B12
13,8 pM,B13
14,< 1 pM,B14
15,2 pM,B15
16,< 1 pM,B16
17,1 pM,B17
18,6 pM,B18
19,19 pM,B19
20,2 pM,B20
21,1 pM,B21
22,1 pM,B22

# Target: T1, Human ANGPTL4(26-406)-FLAG-His6-Avi
# Assay: cell-based or functional assay
row,Reversal of human ANGPTL4 inhibition of human LPL EC50,Binder
1,3000 pM,B23
2,3000 pM,B24
3,2000 pM,B25
4,4000 pM,B26
5,2000 pM,B27
6,2000 pM,B28
7,5000 pM,B29

# Target: T1, Human ANGPTL4(26-406)-FLAG-His6-Avi
# Assay: SET assay (solution equilibrium titration, MSD), IgG
# Description: as §1, §2, §3
row,Kd,Binder
1,7 pM,B23
2,5 pM,B24
3,4 pM,B25
4,29 pM,B26
5,19 pM,B27
6,5 pM,B28
7,53 pM,B29

# Source: patent US20160108110A1 (Novartis, published 2016)
